Where only a bound is given, the exact number is not on record here.

The nature of series [1]: Serum dependence of binding to PS. On the procedure:
The serum dependence or independence of the antibodies is also set forth in Table 2 (see also, Example XXX).
The 1B9, 2G7 and 7C5 antibodies behave essentially the same. These antibodies recognize only PS and require serum or serum proteins for binding to PS. The binding of 1B9, 2G7 and 7C5 to various phospholipids in the present example was assayed only in the presence of 10% bovine serum, whereas binding of the other antibodies was tested either in the absence or in the presence of serum.

A further series in a line: Anti-PS ELISA. It is filed as binding. As to the method: The anti-PS ELISA used in the present studies example is conducted as follows. Unless particular differences are specified, this is the format of the ELISA used throughout the studies of the present application.
The ELISA of the present example is exemplified using the antigen PS (P-6641 25 mg 10 mg/ml (solvent is Chloroform:MeOH 95:5) in 2.5 ml bottle). Other phospholipids can be used using the same protocol. The PS (or other phospholipids) stock solution should be aliquoted and stored in an airtight container at −30° C. The preferred 96 well plates are Dynatech U bottom Immulon 1 (from Dynatech Labs, Cat#011-010-3550).
The standard blocking buffer used in the present example is 10% bovine serum dissolved in PBS. Other blocking solutions are suitable, but any detergents should be excluded from block and wash solutions. The primary antibody is the test sample or admixture. […] The developing solutions are: 10 ml of 0.2M Na2PO4, 10 ml of 0.1M citric acid, one 10 mg tablet of OPD, and 10 μl of hydrogen peroxide. The stop solution is 0.18 M H2SO4.
The protocol of the present example entails coating 96-well plate with PS as follows: dilute the PS stock solution in n-hexane to 10 μg/ml and mix well. Add 50 μl to each well and allow this to evaporate for one hour. Add 200 μl of 10% serum (or other blocking buffer) to each well, cover and maintain at room temperature for 2 hours or overnight at 4° C. Wash the plate three times with PBS. Add the primary antibody (dilute in blocking buffer) and incubate for 2 hours at 37° C. Wash three times with PBS. […] Wash the plate three times with PBS. Develop the ELISA by adding 100 μl of developing solution to each of the wells, develop for 10 minutes, then add 100 μl of stop solution to each plate and read the O.D. at 490 nm.
(In general: ELISA stands for enzyme-linked immunosorbent assay.)

The nature of series [2]: Phospholipid specificity ELISA. The class given is binding. On the procedure: The specificity of the antibodies was determined by ELISA using plates coated with the following phospholipids: PS, phosphatidylserine; PE, phosphatidylethanolamine; PI, phosphatidylinositol; PA, phosphatidic acid; PG, phosphatidylglycerol; PC, phosphatidylcholine; CL, cardiolipin; and SM, sphingomyelin.

The nature of series [3]: Reactivity with plastic-immobilized phospholipid. As to conditions: read-out: EC50 of binding. On the procedure:
Phospholipids were dissolved in n-hexane to a concentration of 50 μg/ml. 100 μl of this solution was added to wells of 96-well microtiter plates. After evaporation of the solvent in air, the plates were blocked for 2 h with 10% fetal bovine serum diluted in DPBS containing 2 mM Ca^2+ (binding buffer).
9D2 antibody or annexin V were diluted in the binding buffer in the presence of 10% serum at an initial concentration of 6.7 nM. Serial two-fold dilutions were prepared in the plates (100 μl per well). The plates were then incubated for 2 h at room temperature. The plates were washed and the 9D2 and annexin V were detected by goat anti-rat IgM conjugated to HRP and rabbit anti-human annexin V followed by goat anti-rabbit IgG conjugated to HRP (all diluted 1:1000), respectively. Secondary reagents were detected by using chromogenic substrate OPD followed by reading plates at 490 nm using a microplate reader (Molecular Devices, Palo Alto, Calif.).
The specificity of the 9D2 antibody binding was validated by using control rat IgM of irrelevant specificity (Pharmingen, San Diego, Calif.). The specificity of annexin V binding to phospholipids, which is Ca^2+-dependent, was determined by diluting the reagent in the DPBS containing 5 mM EDTA. Additional negative controls consisted of washing the plates with the binding buffer containing 0.2% of a detergent Tween 20. This treatment extracts lipids, thus removing the phospholipid that was absorbed to plastic. Neither 9D2 antibody nor annexin V bound to detergent-washed plates.

A further series relates to Meth A fibrosarcoma. The series is described as follows: 3G4 tumor treatment. It is filed as in vivo, mouse. On the procedure: Treatment was repeated 3 times a week. Animals were monitored twice a week for tumor measurements.
(§1) Groups of 8-10 female SCID mice were injected subcutaneously with 2×10^7 L540 cells or orthotopically with 1×10^7 MDA-MB-435 or MDA-MB-231 cells. BALB/c mice were injected subcutaneously with 1×10^6 Meth A cells. Tumors were allowed to grow to an average diameter of 0.8-1 cm (L540), 0.6-0.7 cm (MDA-MB-435), 0.5-0.7 cm (MDA-MB-231), or <0.1 cm (Meth A). […] Animals were monitored three times a week for tumor size and body weight. Mice were sacrificed when tumors in control mice reached a diameter of 1.5-2 cm.

Series [4] concerns orthotopic MDA-MB-231 tumors. In words: 3G4 tumor treatment and histology. It is filed as in vivo, mouse. On the procedure: The general protocol for the animal tumor treatment studies is conducted as follows. Unless particular differences are specified, this is the protocol used throughout the studies of the present application.
For the syngeneic model, Meth A mouse fibrosarcoma tumor cells were used. In one xenogeneic model, human MDA-MB-231 breast tumor cells were seeded into the mammary fat pad. In another xenogeneic model, a large human Hodgkin's lymphoma L540 xenograft was established by injecting cells and allowing the tumor to grow to a size of over 500 mm^3 before treatment. […] Treatment was repeated 3 times a week. Animals were monitored twice a week for tumor measurements.
as §1

The subject of the next series is tumors. The series is described as follows: 3G4 in syngeneic and xenogeneic tumor models (overall). It is filed as in vivo. As to conditions: 100 μg i.p. 3 times a week.
The next series relates to tumor cells. In words: Direct inhibitory effects of 3G4 on tumor cells in vitro. The class given is cell-based.
Another series concerns Pichinde virus. It is filed as cell-based.
Series [5] has as its system orthotopic MDA-MB-435 and MDA-MB-231 tumors. In words: Macrophage infiltration during 3G4 tumor treatment. The class given is in vivo, mouse. As to conditions: 100 μg i.p. three times a week for 2-3 weeks. On the procedure:
as §1

[6] abbreviates: MW used for conversion: IgM 900 kDa, IgG 150 kDa, Annexin V 36 kDa, read-out: EC50.

For the molecule “Annexin V: High affinity PS binding ligand; natural ligand binding anionic phospholipids and PE”, in series [1], the “Serum cofactor?” value is listed as “No”. In addition, the EC50 (as a rule, the concentration giving half of the maximal effect) in the series “Anti-PS ELISA” (setting [6]) was 2.77 nM; in the series “Anti-PS ELISA” (dilutions of tissue culture supernatants) it was 0.100 mg/L; in series [3] (CL), 0.13 nM; in [3] (PA), 0.1 nM; in series [3] (PC), above 8 nM; in [3] (PE) it was 0.1 nM. Further, the concentration giving a half-maximal response (EC50) in [3] (PG) is 0.25 nM; in series [3] (PI) it was 0.05 nM; in [3] (PS), 0.1 nM; in series [3] (SM), above 8 nM. Moreover, in “Anti-PS ELISA” (from EC50 in nM), the “Affinity vs. 3SB (−fold increased)” value was determined as 0.18 fold. For the same molecule, in the series “Anti-PS ELISA” (from EC50 in μg/ml), the “Binding vs. 3SB (−fold increased)” value came to 4.68 fold. In series [2], the “Relative Strength of Reactivity on ELISA” value is listed as “PS = PE = PI = PA > CL > PG”.

B1: 3G4: Mouse IgG3 kappa monoclonal antibody to PS and anionic phospholipids; binding mediated by β2-glycoprotein I (antibody, listed as Mus musculus)
VH: MGWTWIFILILSVTTGVHSEVQLQQSGPELEKPGASVKLSCKASGYSFTGYNMNWVKQSHGKSLEWIGHIDPYYGDTSYNQKFRGKATLTVDKSSSTAYMQLKSLTSEDSAVYYCVKGGYYGHWYFDVWGAGTTVTVSSATTTAPSVYPLVP
VL: MDMRAPAQILGFLLLLFPGTRCDIQMTQSPSSLSASLGERVSLTCRASQDIGSSLNWLQQGPDGTIKRLIYATSSLDSGVPKRFSGSRSGSDYSLTISSLESEDFVDYYCLQYVSSPPTFGAGTKLELKRADAAPTVFIFGRIP
As to B1, the “Serum cofactor?” value in [1] is “β2-glycoprotein I and Yes,”. Also, in “Anti-PS ELISA” (setting [6]), the EC50 came out at 0.266 nM. In addition, the binding specificity profile entry in series [2] is “PS=PA=PI=PG>CL>>PE”. For the same molecule, the “mice with long-term complete remissions” value turned out to be 50% with Meth A fibrosarcoma (Meth A-bearing mice) and 30% in [4] (MDA-MB-231 tumors). Moreover, the “retardation of tumor growth” value with Meth A fibrosarcoma (syngeneic Meth A fibrosarcoma) came to 90%. For the same molecule, the “mean number of CD-31 positive vessels per square millimeter” value in series [4] (BBG3-treated: 160±20) was found to be 50±15 per square millimeter. In [4] (FITC-dextran plasma marker), the “reduction in total tumor plasma volume vs BBG3” value is 60%. Also, the “vessels with disintegration of vascular endothelium” value in series [4] (histological examination) is “about 50%”. For the same molecule, in series [4] (mouse, in vivo), the “reduction in tumor vascularity” value is listed as “about 70%”. The “reduction in microvascular density” value in [4] (treated vs. untreated mice) was 70%. Further, in the series with tumors, the “toxicity in tumor-bearing mice” value is “No toxicity was observed”. Further, the “direct inhibitory effect on tumor cells” value in the series on tumor cells is “No direct inhibitory effect on tumor cells was observed”. Also, in the series with Pichinde virus, the infected cells entry is “about one in about a hundred cells”. Also, the “leukocyte binding and infiltration” value in series [5] was “caused mononuclear leukocytes to bind to the tumor vascular endothelium and infiltrate into the tumor interstitium”.
